Measured values as given in the DeepSol protein solubility set.

Experiment: soluble on expression in E. coli; label from the status in PepcDB or PDB records

Row | Sequence | soluble on expression in E. coli
1 | MPEEYIMSSKACIYVLGGAANTAALFDFDGVYILDGGFAEKNPGFVAHVRDVSAVLLAAPTLGNLGTTSALLEQGKPLPVFTNTKPFKTAKPGSSGEIAKAIQEANSKILSVAPPLFNPKYPANIIYQSAAKGVLSLYILAGDVKDAEVITKALAGGNEAEVEKAAAEHGTIGVLLWRPAMTDQSVVRVLISGTSSLSRIQQSLDKAAKSLPFLNVPTVKSKDALSDIPAPAVPRPVAGKPSARPATTTGTATRPTRPAVPAASAPRALTSRAPAGPSRPTTTRNAAPAPRTAVPSRATVLTKTAPASKAPTRAPVPARSAPAPPRGAPAKPAANTAKAEPIAQKKTVGKVQGTAPSKPAPAAPASAATSPAPAPEAPRRDPNNVTIVLDDSLSPEDFNQGSAPMDIVVIPPTPEPPRHEVAQATHPEESIIDAEDLAKAPLEVDDVANLADVEDEIPPPVDAFKKPEPHPEPNVSGGSEEDKIPEPVDAFKKPDPVELDDFDPLKPSHPEPSAPVVPSDHIIIATPDPELPDIVAAVPFVSPSPKGPNDGLVKLDDELEKIAPGFEEPLIPQAPRDDGTLAECSEEVSKLVEISMDTDNSAEVAADLAKAVGEVTQLSADLQNLGLDEKTDEYVRKLSNQMIEDATLPFTSALASSIVTSNGSETNGHGEQAHAAQNGGIDHQKEIPKHDLMQSRSSVIENGAAVQYEKTDPALDDVLNACAQESEKIDASHPDNLHMPAAPGSAAPAKPVKFARPYYFDVVTVPRNEKLETSVAADGLQEFISKVRSRNVILASKDISGEQLQAILCGKQTWCDSAHPCNVIPTHSSPMLLDFRQKNEEQFAANNLQFSIPVEKQRTTVSSDAGAIEYELARVDLL | soluble
2 | MPESIPQFYKRIQSCDLQSDTTYSKEKPYFNIFSRQCNFGTVQFSYREFYKVTLIIGVGKLYYADKWILVNRPALLFSNPLVPYAWESISEEQKGVFCIFNERFVQSEEKNGSLANTPLFKVTGDKVFFLDDTQVAKVLDIYTQMQEENQSDYVNKFDVLRCYLHLLIHTALKMQDSNRYESHLNASQRITELFIELLDRQFPIDYPHAVLNLRTPADYANRLSVHVNHLNKVIKDTTGKTTSEMIAERIIKECTQYLLHSNLSISEIAYSLGFETVSYFSKFYRKHTGKSPSEVRERTII | not soluble
3 | MPESYWEKVSGKNIPSSLDLYPIIHNYLQEDDEILDIGCGSGKISLELASLGYSVTGIDINSEAIRLAETAARSPGLNQKTGGKAEFKVENASSLSFHDSSFDFAVMQAFLTSVPDPKERSRIIKEVFRVLKPGAYLYLVEFGQNWHLKLYRKRYLHDFPITKEEGSFLARDPETGETEFIAHHFTEKELVFLLTDCRFEIDYFRVKELETRTGNKILGFVIIAQKLLEHHHHHH | soluble
4 | MPEVSVEKPLSVIPPEFCANANCPFSPKEISVLRIKVRGGVSKEEILQVNSASRPALPRQHSASTVSPLQSSSDELNNDSGIDNRTVGSPSTSEFSPRSTDLFVSPKSIIDEEPPHHPPPPPPVEEKLDQVLIPLKLSRGQDYAPIYRSLEQDTYYDQSPSESEKDEDLGLTNTKRYTENFRSVEKNQYMPVMSARVEATFKQPPPREGVKPFVSRAAQDITHNGESKVENIDLTIELNREQKATVTATKYPRTDFIMEDYHRPQTQILAPAPKKPNSTTRIYHAVDIPFDESPASYYPKQNNGYQRQRRYSASSASKQDGMFTLNVIMGSQPVHKGMGFSTVKRDERVIVESVIVGSPADKAGLLVGDTILSINGEEMSDKYQSGVTRILHEAARVGEADVLILRAPVPAPMLSKQMSTSSSNSSNYDKARSVFTENKSFDSYAEFKRKHTRTSRDSNSSNATRSSRDFNSLPRGTTAQSSLDRKRDTSLSSYRTAKDNFNSSSNRSSGRSEYGDYRVSNYQEKNAPGRLTDFVPEVDRRLSRREQSEEIYSRSQRDEEPRTIRNYHLSNENIARTNLNYDGRRDSEEESTTTTLKRTTLPRSGTAQWKNEYSDGEEVTEKLPVTSRDSSPLRSALKKSSHNYYHQSSDPVAPPPRRYYSTESLQLPKTSSYQRYSEEEDEEIEETYSSMRRHRQEIPRHVDEFHTVGSYGVMPQRSRSQQPARLPRYDSVPDDVDEVSGVSHRFYDRSGNHVRAPRERIHDIQIQRDYGDRAPSRDLDFVRNTYKWEEQLEDTKVTTTTKIYEKESRDWRDVINQQRQAAPGNSADRRGIAATSSSLSNLPSYINRRMEKEREREIEYRRDREYSMPPADPPVITEKYERDEYSRVEERTYPVPVARNKMRREETQMQSSLQQMHSQSSQKDDSVVAVSGKHRCAHCNEELGRGAAMIVESLNLFYHLACFKCYVCKTSLGSGATGADVRVRDGRLHCQTCYSNDRVQLSKV | not soluble
5 | MPFAHKVVMRTALYWEPLEDGKVKCKLCPLNCIINPEKRGSCKVRINIDGKLYTLNYGKVSSIALDPIEKKPLFHFWPGSCAFSIGTVGCNMHCKHCQNWEISQADESFPYLQDATPESIVRLARHYECESIAYTYNEPTIWYEFVLDTAKLAKKEGLNNILVTNGYINEEPFRELAKYIDAMNIDIKAFNDKFYMKISSVPSGEPSRRTAVIAKKEFGIHVELTYLIIPTLNDNEEEIRRFARWVVEELGDDTPVHFSRFFPHYKLLNLPPTPIQTLEKAYKIAKEEGLKFVYLGNVPGHEGENTYCPRCGKLLIERWGFEILRYEIKDGKCKYCGEQIPIVGEYQRKTYRGMWW | not soluble
6 | MPFKPLVTAGIEGLLNTFLYRSPALKSARTRLQGKVLCVKLKGFSMPLVLVFSERQVDVLGAWEGEADCTVITQASVLPKLRDRQQLATLIRSGELEVQGDIQVVQNFVALADLAEFDPAELLAPYTGDIAAESIGKVVRGGAKFLRHGFQRQQRYAAEAITEEWRMAPGPLEVAWFAEETAAVERAVDSLTTRLEKLEAK | not soluble
7 | MPGHRITLTGEKQTLLITLYAKALDSRLDDSILHDRFAEEAVRQIDFDFSRVALGKGNERALAMRSHYFDQACREFLGRHPEGQVLNLGCGLDSRIYRVDPPAELPWFDLDYPEVMDLRERLYPPRAGAYRALRHSVDDDGWLQGVPRERPALVLAEGLMPYLRESQVRRLVERLVDHLGSGELLFDGYGRLGIMLLRLYPPLRETGAQVHWSIDDPRELERWHPALRFIEEVTDYDPQDVAKLPQSSRLMLPIYNGFAFLRRMGRLIRYRWPRV | not soluble
8 | MPHFYEYLEFNRDEDREHQLDVYVGVQLEADTIAKITALETASEWLIMAEPYCPDCVEVVAYFQRISQLNPAINVKYVARKDNTQRHYFDSDRQQQAVIAVEKIPAIFNISSAETELVLAEFPAFLKAEMAEHPMQFDALKADFRMGKFGKRLEAELVEILTR | not soluble
9 | MPIADTVTLNSGYEMPVIGYGTWQLPKNLAAERVRDALEAGYRHIDSALSFKNQEEVAAGIKDWCKIRKVRREELFLSSKIWNTYHSRNRCMQQIDEMLEIFETTYMDLIVIHWPFGWAEDEPPGERGLWPRGANGKMRYSDVDYLETWKALEDAHRSGKIRSIGLANFNIGQVEQVWTKGLIKPAVLQVEMNPFLDQEEIRQFCREKGIILTAFMLTGNPGSALYRKHEDPNLLYNETLQSIAKGHGKSVVQVLVRWAIDLRTTALVKSSESKRIRQNINIFKFRLTSQEIARIKALNIDFRILNPLLGNYDHPYFPWPHVQEEQLPQKVEEPDPENL | not soluble
10 | MPIAQLLELWKKIEVEPMEIETTEEDLNLDVGPATEDTAEEGKSDSAACKTKVAGSVEEEGVVKEIDISHHVKEGFEKADPSQFELLKVLGQGSYGKVFLVRKVKGSDAGQLYAMKVLKKATLKVRDRVRSKMERDILAEVNHPFIVKLHYAFQTEGKLYLILDFLRGGDLFTRLSKEVMFTEEDVKFYLAELALALDHLHSLGIIYRDLKPENILLDEEGHIKITDFGLSKEAIDHDKRAYSFCGTIEYMAPEVVNRRGHTQSADWWSFGVLMFEMLTGSLPFQGKDRKETMALILKAKLGMPQFLSGEAQSLLRALFKRNPCNRLGAGIDGVEEIKRHPFFVTIDWNTLYRKEIKPPFKPAVGRPEDTFHFDPEFTARTPTDSPGVPPSANAHHLFRGFSFVASSLIQEPSQQDLHKVPVHPIVQQLHGNNIHFTDGYEIKEDIGVGSYSVCKRCVHKATDTEYAVKIIDKSKRDPSEEIEILLRYGQHPNIITLKDVYDDGKFVYLVMELMRGGELLDRILRQRYFSEREASDVLCTITKTMDYLHSQGVVHRDLKPSNILYRDESGSPESIRVCDFGFAKQLRAGNGLLMTPCYTANFVAPEVLKRQGYDAACDIWSLGILLYTMLAGFTPFANGPDDTPEEILARIGSGKYALSGGNWDSISDAAKDVVSKMLHVDPHQRLTAMQVLKHPWVVNREYLSPNQLSRQDVHLVKGAMAATYFALNRTPQAPRLEPVLSSNLAQRRGMKRLTSTRL | soluble
11 | MPIATPEVYAEMLGQAKQNSYAFPAINCTSSETVNAAIKGFADAGSDGIIQFSTGGAEFGSGLGVKDMVTGAVALAEFTHVIAAKYPVNVALHTDHCPKDKLDSYVRPLLAISAQRVSKGGNPLFQSHMWDGSAVPIDENLAIAQELLKAAAAAKIILEIEIGVVGGEEDGVANEINEKLYTSPEDFEKTIEALGAGEHGKYLLAATFGNVHGVYKPGNVKLRPDILAQGQQVAAAKLGLPADAKPFDFVFHGGSGSLKSEIEEALRYGVVKMNVDTDTQYAFTRPIAGHMFTNYDGVLKVDGEVGVKKVYDPRSYLKKAEASMSQRVVQACNDLHCAGKSLTHHHHHH | soluble
12 | MPILIRNIVLAPGEGDDVLGTRVAERFGVPERDIQSLHLVRKSIDARRKPRVIIVCTVQCRLLDEAGFLVRHGHDPDVKAVKEEPQPVFPRLAGGGRIVIVGMGPAGLFAALRLAEYGLAPTILERGRPVEERTRDVQAFWSLGQLDTESNVQFGEGGAGTFSDGKLTTRVNDSRIGYVLQKFVDFGASPEILHLAKPHVGTDQLRRVVAGIRQGLLAAGCDIRFRSRVTDIVSREGRVGTVIVNGTDEIAADALVLAPGHSARDTYEMLARRGVHLQAKPFAMGVRVEHPQELINGIQYGKGHHPALPPADYALAHNDRRTGRSAYSFCMCPGGVVVAGSSEEGGVVTNGMSAHLRNTPFANSALVVTVGPDDFGSSSPLAGVEFQRHWERRAFEAGGGGYRAPAQNLLSFLGMKGGKGVSSSYRPRVTETDLSRVLPAAVTGTLREALPTFDRRMRGFVTAEATLTGVETRTSAPVRIVRGEDCQSVSLQGLYPTGEGAGYAGGIMSAALDGIRVADIIAGKMTAETRSAILEHHHHHH | not soluble
13 | MPIMSIISCKIMQDEIIWILENDSSIDETIIIDSENILEFVEKLDKVNLQYKVLSLEDISSLAEIRSECKNYTVMIHLMELGLHRSPKELKIKVYETIKTLAPFSSGILLFYGLCGNVLGDVEKDFERSSTSCPVRILKDKDHRIVDDCIGATVGGVNNYLRILKSVSDAGTYLFTPMYSKGWRELLDLNKLNKDPSKALKLMKKTHEMIGYKRVAKINTGLEYTENFDASIQEFAELFDFEILEFDDGNQKIFEDCYNELKAELLEHHHHHH | not soluble
14 | MPINAAYRGPADLPEVIPVFPLAGALLLPRGQMPLNIFEPRYLAMIDDALRDGHRLIGMIQPDAAHSSETAEKPSLFNVGCVGRITQLAESGDGRYILELTGVSRFKVVDELQVLTPYRQCKVDYFPFGDDFTARKGEDEVDRETLLSVLTDFLKANNLKVDWDGVESAPNEALVNALAMMSPYGPPEKQALLEAPDLKTRAEILIAVTEMDLAKKRTSGDPPLQLEHHHHHH | not soluble
15 | MPIVMARDLEETASSSEDEEVISQEDHPCIMWTGGCRRIPVLVFHADAILTKDNNIRVIGERYHLSYKIVRTDSRLVRSILTAHGFHEVHPSSTDYNLMWTGSHLKPFLLRTLSEAQKVNHFPRSYELTRKDRLYKNIIRMQHTHGFKAFHILPQTFLLPAEYAEFCNSYSKDRGPWIVKPVASSRGRGVYLINNPNQISLEDNILVSRYINNPLLIDDFKFDMRLYVLVTSYDPLVIYLYEEGLARKCNWKMGNTMDKRRLPIYVQVL | not soluble
